Experimental data from the RNAGym collection of RNA variant scans (doi:10.1093/molbev/msab373).

B1: Azoarcus group I ribozyme (parent)
chain: GUGCCUUGCGCCGGGAAACCACGCAAGGGAUGGUGUCAAAUUCGGCGAAACCUAAGCGCCCGCCCGGGCGUAUGGCAACGCCGAGCCAAGCUUCGGCGCCUGCGCCGAUGAAGGUGUAGAGACUAGACGGCACCCACCUAAGGCAAACGCUAUGGUGAAGGCAUAGUCCAGGGAGUGGCGAAAGUCACACAAACCGG

Variants of: B1
Assay: reverse-splicing fitness (ratio to wild type); higher = more active; in vitro selection; Mg2+ level not given
Outline: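 An in vitro group I ribozyme library with randomized positions was T7-transcribed and gel-purified. In triplicate, 10 pmol RNA in EPPS pH 7.5 was reacted with 50 pmoles of a 30-nt RNA substrate for 1 h at 37 °C across several added MgCl2 levels (1–48 mM), then stopped with EDTA. Products were reverse transcribed from a substrate-complementary primer, PCR-amplified and sequenced (HiSeq 4000). Fitness is a variant's read proportion after selection over that before, normalised to wild type.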

Point of comparison: C82U A120U C150A U176C, reverse-splicing fitness 0.0109. Against it:
- C82U A120G C169U — higher, 0.0177
- C82U A120G C169G — higher, 0.0242
- C82U A120G C169A — higher, 0.0184
- C82U A120U A145G C150A C169A U176C — lower, 0.00294
- C82U A120U A145G C150A C169A U176A — lower, 0.00482
- C82U A120U A145G C150A C169A U176G — lower, 0.00241
- C82U A120G C150G U176G — lower, 0.00278
- C82U A120G C150G U176A — lower, 0.00577
- C82U A120G C150G U176C — lower, 0.00821
- C82U A120U A145C C169G U176C — lower, 0.00167
- C82U A120U A145C C169G U176G — lower, 0.00143
- C82U A120U A145C C169G U176A — lower, 0.00282
- C82U A120U A145C C150A C169A U176C — lower, 0.00171
- C82U A120U A145C C150A C169A U176A — lower, 0.00177
- C82U A120U A145C C150A C169A U176G — lower, 0.00165
- C82U A120G A145U C150U U176A — lower, 0.0102
- C82U A120G A145U C150U U176C — higher, 0.0143
- C82U A120G A145U C150U U176G — lower, 0.00369
- C82U A120G C150U C169G — higher, 0.0167
- C82U A120G C150U C169A — higher, 0.0144
- C82U A120G C150U C169U — higher, 0.0137
- C82U A120U A145C C150U C169G U176A — lower, 0.00259
- C82U A120U A145C C150U C169G U176C — lower, 0.00188
- C82U A120U A145C C150U C169G U176G — lower, 0.00153
- C82U A120U A145G C150U U176C — higher, 0.0607
- C82U A120U A145G C150U U176G — lower, 0.0067
- C82U A120U A145G C150U U176A — higher, 0.0299
- C82U A120U C150A U176G — lower, 0.00418
- C82U A120U C150A U176A — lower, 0.00756
- C82U A120U A145C C169U U176A — lower, 0.00253
- C82U A120U A145C C169U U176G — lower, 0.00172
- C82U A120U A145C C169U U176C — lower, 0.00289
- C82U A120U A145G C150A C169U — lower, 0.00334
- C82U A120U A145G C150A C169A — lower, 0.00483
- C82U A120U A145G C150A C169G — lower, 0.00351
- C82U A120U C150U — higher, 0.0886
- C82U A120U C150A — higher, 0.0169
- C82U A120U C150G — higher, 0.0156
- C82U A120G A145U C150U C169G U176A — higher, 0.0116
- C82U A120G A145U C150U C169G U176C — higher, 0.0139
- C82U A120G A145U C150U C169G U176G — lower, 0.00343
- C82U A120U A145U C150U C169G U176A — lower, 0.00254
- C82U A120U A145U C150U C169G U176G — lower, 0.00157
- C82U A120U A145U C150U C169G U176C — lower, 0.00299
- C82U A120U A145G C150U C169G U176C — lower, 0.00361
- C82U A120U A145G C150U C169G U176A — lower, 0.00433
- C82U A120U A145G C150U C169G U176G — lower, 0.0018
- C82U A120U A145U C150A C169U U176C — lower, 0.002
- C82U A120U A145U C150A C169U U176A — lower, 0.0025
- C82U A120U A145U C150A C169U U176G — lower, 0.00172
- C82U A120U A145G C150G C169U — lower, 0.00613
- C82U A120U A145G C150G C169G — lower, 0.00646
- C82U A120U A145G C150G C169A — lower, 0.00721
- C82U A120U A145U C150U — higher, 0.106
- C82U A120U A145U C150G — higher, 0.0184
- C82U A120U A145U C150A — higher, 0.0156
- C82U A120U A145U C150A C169A U176A — lower, 0.00221
- C82U A120U A145U C150A C169A U176G — lower, 0.00164
- C82U A120U A145U C150A C169A U176C — lower, 0.00203
- C82U A120U A145C C150G C169A — lower, 0.00211
- C82U A120U A145C C150G C169G — lower, 0.00257
- C82U A120U A145C C150G C169U — lower, 0.00275
- C82U A120U A145G C150U — higher, 0.137
- C82U A120U A145G C150A — higher, 0.0257
- C82U A120U A145G C150G — higher, 0.0229
- C82U A120U C150U C169G — lower, 0.00457
- C82U A120U C150U C169A — lower, 0.00404
- C82U A120U C150U C169U — lower, 0.00548
- C82U A120U C150A C169G U176A — lower, 0.00443
- C82U A120U C150A C169G U176G — lower, 0.00171
- C82U A120U C150A C169G U176C — lower, 0.00268
- C82U A120U A145U C150G C169G U176C — lower, 0.00209
- C82U A120U A145U C150G C169G U176A — lower, 0.00198
- C82U A120U A145U C150G C169G U176G — lower, 0.00173
- C82U A120G C150U U176A — lower, 0.0106
- C82U A120G C150U U176C — higher, 0.0148
- C82U A120G C150U U176G — lower, 0.00504
- C82U A120U C150A C169A — lower, 0.00297
- C82U A120U C150A C169G — lower, 0.00313
- C82U A120U C150A C169U — lower, 0.00341
- C82U A120U C150A C169U U176C — lower, 0.00331
- C82U A120U C150A C169U U176G — lower, 0.00201
